Source: PMC9482650, “Quantitative fragmentomics allow affinity mapping of interactomes” (Nature Communications, 2022)

Assays:
Assay in all cases: holdup assay
Design in all cases: key: below the threshold = too weak to quantify, mostly under pKd 3.1 to 4
[1] = biological target: T1, APBA2_2, Q99767
T1 sequence (Q99767 654-744, limits assumed, looked up): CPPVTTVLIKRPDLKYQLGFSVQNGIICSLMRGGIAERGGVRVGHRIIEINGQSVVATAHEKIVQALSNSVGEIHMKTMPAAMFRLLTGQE

[2] = biological target: T2, DFNB31_2, Q9P202
T2 sequence (Q9P202 274-371, limits assumed, looked up): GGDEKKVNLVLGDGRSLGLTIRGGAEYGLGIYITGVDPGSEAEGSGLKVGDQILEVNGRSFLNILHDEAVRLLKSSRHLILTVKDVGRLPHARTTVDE

[3] = biological target: DLG1_1, Q12959
[4] = biological target: DLG2_3, Q15700
[5] = biological target: T3, DLG3_1, Q92796
T3 sequence (Q92796 125-227, limits assumed, looked up): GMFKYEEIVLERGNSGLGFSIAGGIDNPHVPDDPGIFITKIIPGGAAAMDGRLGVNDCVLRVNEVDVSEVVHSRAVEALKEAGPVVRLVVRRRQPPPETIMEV

[6] = biological target: T4, DVL3, Q92997
T4 sequence (Q92997 244-331, limits assumed, looked up): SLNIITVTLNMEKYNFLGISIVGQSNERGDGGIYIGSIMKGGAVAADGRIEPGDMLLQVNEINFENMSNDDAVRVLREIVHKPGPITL

[7] = biological target: T5, FRMPD1, Q5SYB0
T5 sequence (Q5SYB0 52-145, limits assumed, looked up): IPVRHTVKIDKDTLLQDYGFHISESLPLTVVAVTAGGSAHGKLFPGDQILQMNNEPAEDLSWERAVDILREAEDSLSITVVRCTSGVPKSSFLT

[8] = biological target: GORASP1, Q9BQQ3
Chain of GORASP1, Q9BQQ3 (Q9BQQ3 1-208): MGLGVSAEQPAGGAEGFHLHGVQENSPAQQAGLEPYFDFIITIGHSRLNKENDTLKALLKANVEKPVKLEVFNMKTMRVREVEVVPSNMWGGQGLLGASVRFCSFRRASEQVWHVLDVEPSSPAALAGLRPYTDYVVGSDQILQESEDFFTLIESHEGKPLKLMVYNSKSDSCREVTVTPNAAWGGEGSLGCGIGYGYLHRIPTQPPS

[9] = biological target: GRIP2_4, Q9C0E4
Chain of GRIP2_4, Q9C0E4 (Q9C0E4 446-548): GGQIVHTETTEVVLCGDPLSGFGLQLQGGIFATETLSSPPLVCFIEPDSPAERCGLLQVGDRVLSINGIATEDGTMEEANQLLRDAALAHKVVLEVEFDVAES

[10] = biological target: GRIP2_5, Q9C0E4
Chain of GRIP2_5, Q9C0E4 (Q9C0E4 544-642): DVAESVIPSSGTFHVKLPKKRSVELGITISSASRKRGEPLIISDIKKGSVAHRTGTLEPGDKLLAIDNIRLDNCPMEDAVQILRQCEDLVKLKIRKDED

[11] = biological target: GRIP2_6, Q9C0E4
Chain of GRIP2_6, Q9C0E4 (Q9C0E4 648-740): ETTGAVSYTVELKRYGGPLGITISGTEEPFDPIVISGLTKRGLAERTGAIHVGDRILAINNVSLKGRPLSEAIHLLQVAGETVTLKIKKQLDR

[12] = biological target: GRIP2_7, Q9C0E4
Chain of GRIP2_7, Q9C0E4 (Q9C0E4 934-1023): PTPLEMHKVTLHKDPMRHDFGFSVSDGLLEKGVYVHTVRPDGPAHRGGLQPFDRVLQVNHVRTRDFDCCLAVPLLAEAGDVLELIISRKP

[13] = biological target: HTRA2, O43464
Chain of HTRA2, O43464 (O43464 355-458): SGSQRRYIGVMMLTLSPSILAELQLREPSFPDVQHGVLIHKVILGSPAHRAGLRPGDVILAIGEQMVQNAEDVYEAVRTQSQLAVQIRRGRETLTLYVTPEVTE

[14] = biological target: Inadl_10, Q8NI35
Chain of Inadl_10, Q8NI35 (Q8NI35 1673-1763): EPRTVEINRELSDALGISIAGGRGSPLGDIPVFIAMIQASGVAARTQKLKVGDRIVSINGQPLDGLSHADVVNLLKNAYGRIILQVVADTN

[15] = biological target: LDB3, O75112
Chain of LDB3, O75112 (O75112 1-94): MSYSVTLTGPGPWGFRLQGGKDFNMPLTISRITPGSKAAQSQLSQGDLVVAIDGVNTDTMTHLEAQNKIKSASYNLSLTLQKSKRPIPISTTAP

[16] = biological target: T6, LIN7C, Q9NUP9
T6 sequence (Q9NUP9 88-185, limits assumed, looked up): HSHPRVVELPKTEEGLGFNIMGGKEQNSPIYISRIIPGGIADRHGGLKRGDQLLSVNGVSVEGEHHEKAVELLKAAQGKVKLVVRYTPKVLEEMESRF

[17] = biological target: T7, LNX2_2, Q8N448
T7 sequence (Q8N448 334-432, limits assumed, looked up): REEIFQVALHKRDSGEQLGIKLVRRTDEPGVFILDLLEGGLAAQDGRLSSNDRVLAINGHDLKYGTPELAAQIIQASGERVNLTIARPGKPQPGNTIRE

[18] = biological target: MAGI1_2, Q96QZ7
Chain of MAGI1_2, Q96QZ7 (Q96QZ7 456-580): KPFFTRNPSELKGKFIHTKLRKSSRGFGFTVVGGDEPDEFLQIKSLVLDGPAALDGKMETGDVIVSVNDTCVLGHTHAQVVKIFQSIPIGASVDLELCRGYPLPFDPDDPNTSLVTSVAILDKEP

[19] = biological target: T8, MPDZ_10, O75970
T8 sequence (O75970 1624-1722, limits assumed, looked up): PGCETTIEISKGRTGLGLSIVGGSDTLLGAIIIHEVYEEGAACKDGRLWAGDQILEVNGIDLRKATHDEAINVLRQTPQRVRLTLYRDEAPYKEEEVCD

[20] = biological target: T9, MPP2, Q14168
T9 sequence (Q14168 180-250, limits assumed, looked up): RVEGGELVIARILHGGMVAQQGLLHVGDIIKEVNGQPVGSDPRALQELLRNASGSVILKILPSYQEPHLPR

[21] = biological target: NHERF4_2, Q86UT5
Chain of NHERF4_2, Q86UT5 (Q86UT5 220-308): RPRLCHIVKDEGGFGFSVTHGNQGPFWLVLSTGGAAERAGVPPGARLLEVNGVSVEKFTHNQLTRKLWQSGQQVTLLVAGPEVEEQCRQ

[22] = biological target: NOS1, P29475
Chain of NOS1, P29475 (P29475 9-101): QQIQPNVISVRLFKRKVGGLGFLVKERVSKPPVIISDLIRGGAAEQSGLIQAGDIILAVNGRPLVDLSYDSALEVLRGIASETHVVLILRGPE

[23] = biological target: PARD3_3, Q8TEW0
Chain of PARD3_3, Q8TEW0 (Q8TEW0 582-685): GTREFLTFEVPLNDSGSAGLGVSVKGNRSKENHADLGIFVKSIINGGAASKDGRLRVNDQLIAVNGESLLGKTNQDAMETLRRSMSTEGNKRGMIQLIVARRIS

[24] = biological target: SCRIB_3, Q14160
Chain of SCRIB_3, Q14160 (Q14160 999-1103): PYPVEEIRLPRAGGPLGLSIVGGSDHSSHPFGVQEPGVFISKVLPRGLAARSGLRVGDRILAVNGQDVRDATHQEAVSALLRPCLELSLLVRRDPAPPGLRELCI

[25] = biological target: T10, SIPA1L2, Q9P2F8
T10 sequence (Q9P2F8 945-1036, limits assumed, looked up): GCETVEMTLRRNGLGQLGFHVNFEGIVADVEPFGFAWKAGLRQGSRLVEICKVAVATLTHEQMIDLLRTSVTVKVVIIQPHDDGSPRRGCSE

[26] = biological target: T11, TX1BP3, O14907
T11 sequence (O14907 10-122, limits assumed, looked up): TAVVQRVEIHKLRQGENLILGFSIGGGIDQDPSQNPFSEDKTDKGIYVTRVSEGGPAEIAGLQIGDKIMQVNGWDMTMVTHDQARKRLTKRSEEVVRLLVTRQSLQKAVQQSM

[27] = plain residues with an end cap or a label only (N-terminal biotin on a linker: ttds)
[28] = plain residues with an end cap or a label only (N-terminal biotin on a linker: gsgsgs; C-terminal amide)
[29] = plain residues with an end cap or a label only (N-terminal biotin on a linker: ahx)
[30] = plain residues with an end cap or a label only (N-terminal biotin on a linker: none)

Binder: SGSRPSATVV [HPV73-E6, Q82005]
- pKd [1, 27]: below the threshold
- pKd [2, 27]: below the threshold
- pKd [3, 27]: 3.89
- pKd [4, 27]: 3.61
- pKd [5, 27]: below the threshold
- pKd [6, 27]: 3.5
- pKd [7, 27]: below the threshold
- pKd [8, 27]: 4.19
- pKd [9, 27]: 3.55
- pKd [10, 27]: below the threshold
- pKd [11, 27]: below the threshold
- pKd [12, 27]: 3.56
- pKd [13, 27]: below the threshold
- pKd [14, 27]: below the threshold
- pKd [15, 27]: below the threshold
- pKd [16, 27]: 3.81
- pKd [17, 27]: 4.98
- pKd [18, 27]: 4.15
- pKd [19, 27]: 3.74
- pKd [20, 27]: below the threshold
- pKd [21, 27]: below the threshold
- pKd [22, 27]: 3.8
- pKd [23, 27]: 3.76
- pKd [24, 27]: below the threshold
- pKd [25, 27]: below the threshold
- pKd [26, 27]: below the threshold

Binder: VSVDDVRSTSQGLSSY [DFNB31_int, Q9P202]
- pKd [1, 28]: below the threshold
- pKd [2, 28]: below the threshold
- pKd [3, 28]: below the threshold
- pKd [4, 28]: 3.55
- pKd [5, 28]: below the threshold
- pKd [6, 28]: below the threshold
- pKd [7, 28]: below the threshold
- pKd [8, 28]: below the threshold
- pKd [9, 28]: below the threshold
- pKd [10, 28]: below the threshold
- pKd [11, 28]: below the threshold
- pKd [12, 28]: below the threshold
- pKd [13, 28]: below the threshold
- pKd [14, 28]: below the threshold
- pKd [15, 28]: below the threshold
- pKd [16, 28]: 4.12
- pKd [17, 28]: below the threshold
- pKd [18, 28]: below the threshold
- pKd [19, 28]: below the threshold
- pKd [20, 28]: below the threshold
- pKd [21, 28]: below the threshold
- pKd [22, 28]: below the threshold
- pKd [23, 28]: below the threshold
- pKd [24, 28]: below the threshold
- pKd [25, 28]: below the threshold
- pKd [26, 28]: below the threshold

Binder: TVICWPGSLV [LNX2, Q8N448]
- pKd [1, 29]: below the threshold
- pKd [2, 29]: below the threshold
- pKd [3, 29]: 4.21
- pKd [4, 29]: 4.24
- pKd [5, 29]: 4.01
- pKd [6, 29]: 3.99
- pKd [7, 29]: below the threshold
- pKd [8, 29]: 3.58
- pKd [9, 29]: below the threshold
- pKd [10, 29]: below the threshold
- pKd [11, 29]: below the threshold
- pKd [12, 29]: below the threshold
- pKd [13, 29]: 4.42
- pKd [14, 29]: 4.03
- pKd [15, 29]: below the threshold
- pKd [16, 29]: 4.98
- pKd [17, 29]: 4.32
- pKd [18, 29]: 3.85
- pKd [19, 29]: 3.9
- pKd [20, 29]: 3.62
- pKd [21, 29]: below the threshold
- pKd [22, 29]: 3.82
- pKd [23, 29]: 3.68
- pKd [24, 29]: 4.11
- pKd [25, 29]: below the threshold
- pKd [26, 29]: 4.59

Binder: PVRVCEETSL [OTULIN, Q96BN8]
- pKd [1, 27]: 3.51
- pKd [2, 27]: 3.58
- pKd [3, 27]: 4.35
- pKd [4, 27]: 3.95
- pKd [5, 27]: 3.75
- pKd [6, 27]: below the threshold
- pKd [7, 27]: below the threshold
- pKd [8, 27]: 3.64
- pKd [9, 27]: 3.53
- pKd [10, 27]: below the threshold
- pKd [11, 27]: 3.53
- pKd [12, 27]: 3.66
- pKd [13, 27]: below the threshold
- pKd [14, 27]: 3.55
- pKd [15, 27]: below the threshold
- pKd [16, 27]: 4.06
- pKd [17, 27]: below the threshold
- pKd [18, 27]: 4.01
- pKd [19, 27]: below the threshold
- pKd [20, 27]: below the threshold
- pKd [21, 27]: below the threshold
- pKd [22, 27]: 3.79
- pKd [23, 27]: 3.59
- pKd [24, 27]: 5.64
- pKd [25, 27]: below the threshold
- pKd [26, 27]: 4.37

Binder: NLNSSRVPDLLV [SARS-CoV2-E, P0DTC4]
- pKd [1, 30]: below the threshold
- pKd [2, 30]: below the threshold
- pKd [3, 30]: below the threshold
- pKd [4, 30]: below the threshold
- pKd [5, 30]: below the threshold
- pKd [6, 30]: below the threshold
- pKd [7, 30]: below the threshold
- pKd [8, 30]: 3.6
- pKd [9, 30]: below the threshold
- pKd [10, 30]: below the threshold
- pKd [11, 30]: below the threshold
- pKd [12, 30]: below the threshold
- pKd [13, 30]: below the threshold
- pKd [14, 30]: below the threshold
- pKd [15, 30]: below the threshold
- pKd [16, 30]: below the threshold
- pKd [17, 30]: 4.46
- pKd [18, 30]: below the threshold
- pKd [19, 30]: below the threshold
- pKd [20, 30]: below the threshold
- pKd [21, 30]: below the threshold
- pKd [22, 30]: below the threshold
- pKd [23, 30]: 3.82
- pKd [24, 30]: below the threshold
- pKd [25, 30]: below the threshold
- pKd [26, 30]: below the threshold
